Values quoted from earlier work in publication PMC5744648.

Experiments:
[1] = target: CMKLR1 (Chemerin1) (Mus musculus) (UniProt P97468); assay: radioligand binding
[2] = target: GPR1 (Chemerin2) (Homo sapiens) (UniProt P46091); assay: radioligand
[3] = target: CMKLR1 (Chemerin1) (Homo sapiens) (UniProt Q99788); assay: radioligand
[4] = target: GPR1 (Chemerin2) (Homo sapiens) (UniProt P46091); assay: radioligand binding

Chain of CMKLR1 (Chemerin1) (Homo sapiens) (Q99788 whole entry): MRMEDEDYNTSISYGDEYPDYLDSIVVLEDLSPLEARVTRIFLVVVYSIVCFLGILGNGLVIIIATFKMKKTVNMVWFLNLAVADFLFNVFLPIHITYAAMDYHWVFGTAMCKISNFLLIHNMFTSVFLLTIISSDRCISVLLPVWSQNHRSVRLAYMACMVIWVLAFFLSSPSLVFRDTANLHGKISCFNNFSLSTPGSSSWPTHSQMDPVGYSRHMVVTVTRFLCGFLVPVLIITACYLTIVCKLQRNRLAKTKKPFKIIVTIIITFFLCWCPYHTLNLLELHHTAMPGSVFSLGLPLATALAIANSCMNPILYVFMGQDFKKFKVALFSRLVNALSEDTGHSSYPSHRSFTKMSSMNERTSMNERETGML
Chain of Chemerin 21-157 (Q99969 21-157): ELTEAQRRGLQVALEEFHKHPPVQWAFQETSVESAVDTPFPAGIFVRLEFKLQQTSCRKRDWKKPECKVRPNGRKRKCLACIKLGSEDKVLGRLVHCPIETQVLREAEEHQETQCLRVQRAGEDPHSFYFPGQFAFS
Chain of GPR1 (Chemerin2) (Homo sapiens) (P46091 whole entry): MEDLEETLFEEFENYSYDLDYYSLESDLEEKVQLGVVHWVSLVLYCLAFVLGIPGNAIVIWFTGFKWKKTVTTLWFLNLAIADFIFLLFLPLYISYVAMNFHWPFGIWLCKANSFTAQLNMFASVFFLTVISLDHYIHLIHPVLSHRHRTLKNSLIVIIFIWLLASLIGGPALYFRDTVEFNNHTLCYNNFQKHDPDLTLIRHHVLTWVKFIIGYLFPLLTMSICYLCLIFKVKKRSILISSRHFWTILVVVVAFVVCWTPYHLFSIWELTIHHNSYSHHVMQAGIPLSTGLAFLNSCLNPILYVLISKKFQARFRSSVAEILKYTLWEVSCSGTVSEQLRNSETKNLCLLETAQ
Chain of Chemerin C9 peptide 149-157 (Q99969 whole entry, looked up, tested part not stated): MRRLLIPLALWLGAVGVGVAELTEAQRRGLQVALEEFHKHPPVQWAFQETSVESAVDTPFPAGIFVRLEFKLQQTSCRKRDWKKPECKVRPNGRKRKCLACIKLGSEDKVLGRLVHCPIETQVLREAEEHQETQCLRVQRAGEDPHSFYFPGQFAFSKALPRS
Chain of CMKLR1 (Chemerin1) (Mus musculus) (P97468 whole entry): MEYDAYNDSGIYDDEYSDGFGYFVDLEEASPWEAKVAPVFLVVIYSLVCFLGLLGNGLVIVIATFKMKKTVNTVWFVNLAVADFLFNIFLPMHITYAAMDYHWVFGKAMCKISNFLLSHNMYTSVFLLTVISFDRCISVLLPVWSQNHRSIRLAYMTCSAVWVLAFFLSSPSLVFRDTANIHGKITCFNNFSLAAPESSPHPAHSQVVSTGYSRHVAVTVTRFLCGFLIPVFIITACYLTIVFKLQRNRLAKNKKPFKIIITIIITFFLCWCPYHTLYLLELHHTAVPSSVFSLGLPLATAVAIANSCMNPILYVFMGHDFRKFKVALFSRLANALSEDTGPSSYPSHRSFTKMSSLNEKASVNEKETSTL
Chain of Chemerin 21-148 (Q99969 21-148): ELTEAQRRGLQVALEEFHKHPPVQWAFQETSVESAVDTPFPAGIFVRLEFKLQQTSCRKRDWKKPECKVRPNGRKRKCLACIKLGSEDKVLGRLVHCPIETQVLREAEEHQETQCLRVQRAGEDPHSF

Chemerin 21-148 (from UniProt Q99969)
Kd [1]: 1.2 nM

Chemerin C9 peptide 149-157 (from UniProt Q99969)
Kd [2]: 5.3 nM

Tyr-[Phe149]-chemerin146-157 146-157 (from UniProt Q99969)
Kd [3]: 22 nM

Chemerin 21-157 (from UniProt Q99969)
Kd [4]: 0.21 nM | Kd [3]: 0.88 nM
